Measurements: paper PMC9158529, “AfCHIL, a Type IV Chalcone Isomerase, Enhances the Biosynthesis of Naringenin in Metabolic Engineering” (Frontiers in Plant Science, 2022)

Experiments:
AfCHS/AfCHIL = test system: T1, AfCHS/AfCHIL; assay: HPLC at […] nm, Michaelis-Menten fit; type: biochemical, Allium fistulosum; conditions: AfCHIL present; 200 uM malonyl-CoA, 20-200 uM p-coumaroyl-CoA
T1 construct: gene CHS; complete ORFs in pET-15b, His6-tagged, E. coli BL21 (DE3), combined in the assay; legend calls it AfCHIL/AfCHS1; with Chalcone isomerase-like protein (type IV chalcone isomerase)

AfCHS = test system: T2, AfCHS; assay: HPLC at […] nm, Michaelis-Menten fit; type: biochemical, Allium fistulosum; conditions: 200 uM malonyl-CoA, 20-200 uM p-coumaroyl-CoA, HEPES-KOH pH 7.0, 2 mM DTT, 35 °C, 30 min
T2 construct: gene CHS; complete ORF in pET-15b, His6-tagged, E. coli BL21 (DE3), His-tag purified

[1] = biological target: AfCHS, chalcone synthase of Allium fistulosum (yeast two-hybrid fusion) (Allium fistulosum)
[2] = biological target: AfCHS, chalcone synthase of Allium fistulosum (yeast two-hybrid fusion) (Allium fistulosum); remark: listed apart in the source

| Km (AfCHS/AfCHIL) [µM] | Km (AfCHS) [µM] | by-product CTAL produced by purified AfCHS in vitro with AfCHIL present, against AfCHS alone [1] [% decrease] | naringenin produced by purified AfCHS in vitro with AfCHIL present, against AfCHS alone [1] [times] | Kcat of purified His6-AfCHS (p-coumaroyl-CoA and malonyl-CoA as substrates) in the presence of purified His6-AfCHIL, against AfCHS alone [2] [times] | Compound |
| --- | --- | --- | --- | --- | --- |
| 53.9 ± 10 | 55.1 ± 12.5 | – | – | – | CC(C)(COP(=O)(O)OP(=O)(O)OC[C@H]1O[C@@H](n2cnc3c(N)ncnc32)[C@H](O)[C@@H]1OP(=O)(O)O)[C@@H](O)C(=O)NCCC(=O)NCCSC(=O)/C=C/c1ccc(O)cc1 [p-coumaroyl-CoA] |
| – | – | 30 | 2.2 | 2.7 | AfCHIL, type IV chalcone isomerase of Allium fistulosum (yeast two-hybrid fusion) (natural protein) |
